From paper PMC8292379

Molecular target: Human mitochondrial chaperonin mHsp60 (human), P10809
Test: cryo-EM structure; ~9 mg/ml mHsp60 on Quantifoil holey carbon grids, Titan Krios 300 kV, C7 symmetry imposed, combined map at 3.4 Å; 2D class averages show seven-fold symmetry
Details: remark: other sources report otherwise

B1: Human mitochondrial chaperonin mHsp60, P10809 27-573 (natural protein)
chain: AKDVKFGADARALMLQGVDLLADAVAVTMGPKGRTVIIEQSWGSPKVTKDGVTVAKSIDLKDKYKNIGAKLVQDVANNTNEEAGDGTTTATVLARSIAKEGFEKISKGANPVEIRRGVMLAVDAVIAELKKQSKPVTTPEEIAQVATISANGDKEIGNIISDAMKKVGRKGVITVKDGKTLNDELEIIEGMKFDRGYISPYFINTSKGQKCEFQDAYVLLSEKKISSIQSIVPALEIANAHRKPLVIIAEDVDGEALSTLVLNRLKVGLQVVAVKAPGFGDNRKNQLKDMAIATGGAVFGEEGLTLNLEDVQPHDLGKVGEVIVTKDDAMLLKGKGDKAQIEKRIQEIIEQLDVTTSEYEKEKLNERLAKLSDGVAVLKVGGTSDVEVNEKKDRVTDALNATRAAVEEGIVLGGGCALLRCIPALDSLTPANEDQKIGIEIIKRTLKIPAMTIAKNAGVEGSLIVEKIMQSSSEVGYDAMAGDFVNMVEKGIIDPTKVVRTALLDAAGVASLLTTAEVVVTEIPKEEKDPGMGAMGGMGGGMGGGMF
How did the stoichiometry N turn out when B1 was run?
The stoichiometry N was 7.
